Assay [1] concerns the target bovine brain calcineurin (bovine) (UniProt P48452).
Assay [2] concerns the target N-succinyl-Ala-Leu-Pro-Phe-p-nitroanilide.

As to “FKBP12.6 (bovine, purified from calf brain cytosol)”, in assay [1], the IC50 for inhibition of CaN phosphatase activity (with FK-506, CaM, Ca2+, Mg2+) worked out at 16 nM.

In turn, cyclophilin (enzyme) registered a PPIase activity in assay [2] of 25 fold.

For the substance “recombinant human FKBP12 (from UniProt P62942)”, in assay [1], the IC50 for inhibition of CaN phosphatase activity (with FK-506, CaM, Ca2+, Mg2+) came to 9.9 nM.

(Values after patent US5457182.)
